The nanobody polyreactivity screen of Harvey et al. (2022)

Test: yeast display, Sf9 membrane polyspecificity reagent, FACS + sequencing; frameworks hold sequencing errors
In short: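 Nanobodies from a synthetic yeast display library (Saccharomyces cerevisiae BJ5465), induced 36–48 hours with galactose, were stained 1 hour at 4 °C with 10% biotinylated, detergent-solubilized Sf9 membrane reagent, enriched on streptavidin microbeads, then FACS-sorted. Anti-HA (expression) and streptavidin (reagent binding) fluorescence set low and high (top ~1%) gates. Polyreactivity labels come from the gate of origin. Genes were colony-PCR amplified, MiSeq 2 × 250 sequenced and filtered by CDR length.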

QVQLVESGGGLVQAGGSLRLSCAASGRTFPFYAMGWYRQAPGKERELVASISRSTGRTYYADSVKGRFTISRDNAKNTVYLQMNSLKPEDTAVYYCAKSGGSSQYWYGYWGQGTQVTVSS
polyreactivity (PSR sort gate): high polyreactivity

QVQLVESGGGLVQAGGSLRLSCAASGRIFVQNAMGWYRQAPGKEREVVAAISSRGTSTYYADSVKGRFTISRDNAKNTVYLQMNSLKPEDTALYYCAAREWRTFDYWGQGTQVTVSS
polyreactivity (PSR sort gate): low polyreactivity

QVQLVESGRGLVQAGASLRLSCAASGRTFPYYARGRYRQAPGKERELVAAITTGGSTNYADSVKGRFTISRDNAKNTVYLQMNRLKPEDTAVYYCAKRFYRSRLNYYYWGQGTQVTVSS
polyreactivity (PSR sort gate): high polyreactivity

QVQLVESGGCLVQAGGSLRLSCDASGGIFVSYAMGWYRQAPRKDRELVAAITSGGGTSYADSVKGRFTISRDNAKNTVYLQMNSLKPEDTAVYYCNADGYLAERFVIRLDEYRDYDYWGQGTQVTVSS
polyreactivity (PSR sort gate): low polyreactivity

QVQLVESGSGLVQAGGSLRLSCAASGSIFVNYGMGRYRQAPGKERELVAAINRNGGRTYYADSVKGRFTISRDNAKNTVYLQMNSLKPEDTAVYYCNALYPGGLSLSRLDYWGQGTQVTVSS
polyreactivity (PSR sort gate): high polyreactivity

QVQLVESGGGLVQAGGSLRLSCAASGNIFKYYAMGWYRQAPGKERELVAAISWGGSRTYYADSVKGRFTISRDNAKNTVYFQMNILKPEDSAVYYCAAAPRYSWTSVPRYDYWGLGTQVTVSS
polyreactivity (PSR sort gate): high polyreactivity

QVQHVESGGGLVQAGGSLRLSCAASGIILGSYAMGWYRQAPGKEMELVAAIRWSRGRTYYADSVKGRFTISRDNAKNTVYLQMNSLKPEDSAVYYCAAANSRRGYDYWGQGTQVTVSS
polyreactivity (PSR sort gate): high polyreactivity

QVQLVESGGGLVQAGGSLRLSCAASGSTFPGYAMGWYRQAPGKERELVAAITWSGVTTYYADTVKGRFTMSRDNAKNTVYIQMNSLKPEDTAVYYCATGTLYSDGAIYGYWGQATQVTVSS
polyreactivity (PSR sort gate): low polyreactivity

PVQLVESGGGLVQAGGSHRVICAASGRIFYVDAMGWSTQAPGKERELVADMSRGGSTNYADSVKGRFTISRDNAKKTVYLQMNRLKPEDTSVYYCNTDGLWSAEYDYWGQGTQVTVSS
polyreactivity (PSR sort gate): low polyreactivity

QVQLVESGGGLVQAGGTLRLSCADSGSTIRNYAMGWYRQAPGKERELVATISASGGSTYYADSVKGRFTISRDNAKNTVYLQLNSLKPEDTAVYYCNAVVKLWGLVIPPGDYDYWRQGTQVTVSS
polyreactivity (PSR sort gate): high polyreactivity

QVQLVESGGGLVQAGGSLSLSCAASGSILQLYAMGWYRQAPGTERELVAAITESAGSKSYADSVKGRFTISRDNAKITVYLQMNSLKPEDTAVYYCNAEYSAYSGFDVEWSLDYDYWGQGTQVTVSS
polyreactivity (PSR sort gate): low polyreactivity

KDQLVESGGGLVQAGGSLRLSGAASGRTFASNDMVWYRQAPGKERELVADINNGARTYYADSVKGRFTISRDNAKNTVYLQMNSLKPEDSAVYYCNARPWYWWECRYDYWGQGTQVTVSS
polyreactivity (PSR sort gate): high polyreactivity

QVQLVESGGRLVQAGGSLRLSCAASGFILLAYAMGWYRQAHGKERELVAAITSGGSTHYADSVKGRFTISRDNAKNTVYLQMNSLKPEDTAVYYCAKDTVFRYSGNTYGYWGQGTQVTVSS
polyreactivity (PSR sort gate): low polyreactivity

QVQLVESGGGLVQAGGSLRLSCAASGFIFEYYAMGWYRQAPGKERELVAAISSGGGRTYYADSVKGRFTISRDNAKNTVYLQMNSLKPEDTAVYYCAAGFYVDYQLYEYWGQGTQVTVSS
polyreactivity (PSR sort gate): high polyreactivity

QVQLVESGGGLVQAGGSLLLSCAAAGSIFRTYAMGWYRQAPGKERELVAAISRSGSSTYYADSVKGRFTISRDNAKNTVYFQMNSLKPEDTAVYYCAALVRKYGVDYWGQGTQVTVSS
polyreactivity (PSR sort gate): high polyreactivity

QVQLVESGGGLVQAGGSLRLSCAASGFIFSGYAMGWYRQAPGKERELVAAIRWNGGRTYYADSVKGRFTISRDNAKNTVYLQMNSLKPEDTAVYYCAAGSGRDYGYRYFFWRYDYWGQGTQVTVSS
polyreactivity (PSR sort gate): high polyreactivity

QVQLVESGGGLVQAGGSLRLSCAASGFISPPYAMGWYRQAPGKVMELVAAISSNGGRTSYADSVKGRFTISRDNAKNTVYLQMNSLKPEDTAVYYCNAVYSLYYTRYNYWGQGTQETVSS
polyreactivity (PSR sort gate): high polyreactivity

QVQLVESGGGLVQAGGSLRLSCAASGRIIARYAMGWSRQAPGKERELVAAISRGGGRTYYADSVKGRFTISRDNATNTVYLQMNSLKPEDTAVYYCAADAYSIASVGYDYWGQGTQVTVSS
polyreactivity (PSR sort gate): high polyreactivity

QVQLVESGGGLVQAGGSLRLSCAASGRIFKTNAMGWYRQAPGKERELVAGINSSDGSTYYADSVKGRFTISRDIEKNTVYLQMNSLKPEDTAVYYCAAVRYYWGQGTQVTVSS
polyreactivity (PSR sort gate): low polyreactivity

QVQLVESGGGLVQAGGSLRLSCAASGFIFPTNVMGWYRQAPGKEREFVASITWRGGGTYYADSVKGRFTISRDNAKNTVYLPMNSLKPEDTAVYYCAAGRSWSSYWKYDYWGQGTQVTVSS
polyreactivity (PSR sort gate): low polyreactivity

QVQLVESGGGLVQAGGSLRLSCAASGRTFATNVMGWYRQAPGKERELVAAISRSGGRTYYADSVKGRFTISRDNAKNTVYLQMNSLKPEDTAVYYCAARRRRFYYQYYRYDYWGQGTQVTVSS
polyreactivity (PSR sort gate): high polyreactivity

QVQLVESGGGLVQAGGSLRLSCAASGSIFTDNVMGWYRQAPGKERELVAAITYSAASTYYADSVKGRFTISRDNAKNTVYLQMNSLKPEDTAVYYCNARIIYRKWLFRSGTFNYWGQGTQVTVSS
polyreactivity (PSR sort gate): low polyreactivity

QVQLVESGGGLVQAGGSLRLSCAASGSIFESYVMGWYRQAPGKERELVAAISYTGDDTYYADSVKGRFTISRDNAKNTVYLQMNSLKPEDTAVYYCNADNYYYYPWYVRALDSWGQGTQVTVSS
polyreactivity (PSR sort gate): low polyreactivity

QVQLVESGGGLVQAVGTLRLTCAASGITFNVNAMGWYRQEPGKERELVARITTSGGSTSYADSVKGRFTISRDNAYNTVYLQMNSLKPEDTAVYYCAADRARYFSEYDYWGQGTQVTVSS
polyreactivity (PSR sort gate): low polyreactivity

QVQLVESGGGLVQAGGSLRLSCAASGLTFIKYAMGWYRQAPGKEREFVADISKRGGTTYYADSVKGRFTISRDNAKNTVYLQMNSLKPEDTAFYYCAARQYLNVYYRYDYWGQGTQVTVSS
polyreactivity (PSR sort gate): high polyreactivity

QVQLVESGGGLVQAGVSLRLSCAASGRISVFYTMGWYRQAPGKERELVAVNRTSGGRTNYADSVKGRFTISRDNAKNTVDLQMNSLKPEDTAVYYCAARVVRYGYKYYYWGQGTQVTVSS
polyreactivity (PSR sort gate): low polyreactivity

QVQLVESGGGLVQAGGSLRFSCAASGSIFDIYGMGWYRQAPGKESELVASISGGAGSTNYADSVKGRFTISRDYAKNTVYLQMNSLKPEDTAVYYCAAVCADPTEYDYWGQGTQVTVSS
polyreactivity (PSR sort gate): low polyreactivity

QVQLVESGGGLVQAGVSLRLSCAASGFIFVSYAMGWYRQAPGIERELVAAIDRIGGITYYADSVKGRFTISRDNAKNTVYLQMNSLKPVDTAVYYCAAAARYATVRVGREYYWGQGTQVTVSS
polyreactivity (PSR sort gate): low polyreactivity

QVQLVESGGGLVQAGGSLRLSCAASGSIFRQYAMGWYRQAPGKERELVATISRSGGSTYYADSVKGRFTISRDNAKNTVYLQMNSLKPEDTAVYYCAASRYNKSYREWWVGSWGQGTQVTVSS
polyreactivity (PSR sort gate): high polyreactivity

QVQLVESGGGLVQAGGSLRLSCADSGITFYIYAMGWYRQAPGKERELVATISWSDGRTYYADSVKGRFTISRDNAKNTVYLQMNRLKPEDTAVYYCAADWWYYQFDYEYWGQGTQVTVSS
polyreactivity (PSR sort gate): low polyreactivity

QVQLQESGGGLVQAGGSLRLSCAASGSISHYIFMCWYRQSPGKEREFVAGIGYGGTTNYADSVKGRFTISRDNAKNTVYLQMISLTPEDTAMYYCAAREATEFYLYYWGQGTQVTVSS
polyreactivity (PSR sort gate): low polyreactivity

QDQHVESGRGLVQEGGSLRLSSPPSGRTIYEYAIGWYRQAPGKETQLVAGITTSGGSTYYAVSVKGRFTISRDNAKNTVYLQMNSLKPEDTAVYYCAKYRKSRGDNDSWGQGTQVTVSS
polyreactivity (PSR sort gate): high polyreactivity

QVQLVESGGGLVQAGGSLRLSCAASGRTFWGYAMGWYRQAPGKERELVAAISCRGGRTYYADSVKGRFTISRDNAKNTVYLQMNSLKPEDTAVYYCNRAYLLRPDLYDYWGQGTQVTVSS
polyreactivity (PSR sort gate): low polyreactivity

QVQLVESGGGLVQAGGSLRLSCAASGRTFPYNAMGRYRQAPGKERELVAAISGRGGSTYYADSVKGRFTISRDNAKNTVYLQMNSLKPEDTAVYYCAVYTIYGFYYWGQGTQVTVSS
polyreactivity (PSR sort gate): high polyreactivity

QVQLVESGGGIVQAGGSLRISCAASGFIFSSYDMGWYRQAPGKERELVAAITWSGGSTYYADSVKARFTISRDNAKNTVYLHMNSLKPEDTAVYYCNAYPYYLVRNMDSWGQGTQVTVSS
polyreactivity (PSR sort gate): high polyreactivity

QVQLVESGGGIVQAGGSLRLSCAASGRIFGYYAMGWYRQAPGKERELVARISSSGGSTYYADSVKGRFTISRDNAKNTVYVQMNSLKPEDTAVDYCNTASNRYPGWRAEFDYWGQGTQVTVSS
polyreactivity (PSR sort gate): low polyreactivity

QVQLVESGGGLVQAAGSRRLSCDASGRIFGWYAMGWSRQAPGKERELVAAITNSGGSPYCADSVKGRFTISRDNAKNTVYLERKSLIPEDTAVYYCARSFSFYGKRKYDYWGQGTQVTVSS
polyreactivity (PSR sort gate): high polyreactivity

QVQLVESGGGLVQAGGSLRLSCAASGFTFSPNAMGWDRQAPGKERELVATISWNGGRTHYADSVKGRFTISRDNANKTVYLQMNSLKPEDTAVYYCNVVRATGRYYYWGQGTQVTVSS
polyreactivity (PSR sort gate): high polyreactivity

QVQLVESGGGLVQAGGSLRLSCAASGFIFWLNAMGWYRQAPGKERELVAAISIGGRTNYADSVKGRFTISRDNAKNTVYLQMNSLKPEDTAVYYCNKDYRSVYKGRGFDYWGQGTQVTVSS
polyreactivity (PSR sort gate): low polyreactivity

QVQLVESGVGLLQAGGSLRLSCAASGFIIVPYAMGWYIQAPGKERELVATITWRGDSTYYADSVKGRFTISRDNAKNTVYLQMNSLKPEDTAVYYCAKRVVRGKVDYWGQGTQVTVSS
polyreactivity (PSR sort gate): low polyreactivity

QVQLVESGGGLVQAGGSLRLSCAASGRIFSRYAMGWYRQAPGKERELVATISSSRGGTSTNYADSVKGRFTISRDNAKNTVYLQMNSLKPEDTAVYYCNALYGRQIVDYDYWGQGTQVTVSS
polyreactivity (PSR sort gate): low polyreactivity

QVQLVESGGGLVQAGGSLRLSCAASGFTFFYYVMGWYRQAPGKERELVAAISQHGGSTYYADSVKGRFTISRDNAKNTVYLQMNSLKPEDTAVYYSAASPVVNRRGTYGYWGQGTQVTVSS
polyreactivity (PSR sort gate): high polyreactivity

QVQLVESGGGLVQAGGSLRLSCAASGGTLYYNAMGWYRQAPGKERELVAAISGRGGRTYYADSVKGRFTISRDNAKNTVYLQMNSLKPEDTAVYYFARVTNDHYDYWGQGTQVTVSS
polyreactivity (PSR sort gate): high polyreactivity
